Patent US20160369010A1 (AstraZeneca / MedImmune, published 2016)

Columns and labels:
[1] = target: T1, Recombinant human Avi_PCSK9_Flag_His (human, UniProt Q8NBP7 31-692, biotinylated in the HTRF and LDL-R competition assays); assay: HTRF epitope competition: unlabelled compound titrated against a DyLight 650-labelled anti-PCSK9 antibody for biotinylated human PCSK9; % specific binding [panel C]
T1 construct: In-house protein; also called human PCSK9; huPCSK9
Description: (§1) PCSK9 activity of each peptide-antibody fusions was assessed using Homogenous Time Resolved Fluorescence (HTRF) epitope competition assays.
(§2) For the assay all samples and reagents were prepared in assay buffer containing 1X Phosphate Buffered Saline, 0.1% BSA (Sigma A9576) and 0.4M Potassium Fluoride. Test samples of peptide-antibody fusions or control antibodies were prepared in 384 well polypropylene plates by 3-fold serial dilutions. […] Delta F% was then calculated using the following equation.

[2] = target: T1, Recombinant human Avi_PCSK9_Flag_His; assay: SPR (Biacore 2000)
human GLP-1 receptor = human GLP-1 receptor (human, UniProt P43220 24-463); assay: cell-based or functional assay
[3] = target: T1, Recombinant human Avi_PCSK9_Flag_His; assay: HTRF epitope competition: unlabelled compound titrated against a DyLight 650-labelled anti-PCSK9 antibody for biotinylated human PCSK9; % specific binding [panel B]
Description: as §1, §2

[4] = target: T2, Flag/His tagged human CD86 (in-house) (human, UniProt P42081 24-247, limits assumed); assay: DELFIA TRF, antigen coated at 10 µg/mL
T2 sequence (looked up): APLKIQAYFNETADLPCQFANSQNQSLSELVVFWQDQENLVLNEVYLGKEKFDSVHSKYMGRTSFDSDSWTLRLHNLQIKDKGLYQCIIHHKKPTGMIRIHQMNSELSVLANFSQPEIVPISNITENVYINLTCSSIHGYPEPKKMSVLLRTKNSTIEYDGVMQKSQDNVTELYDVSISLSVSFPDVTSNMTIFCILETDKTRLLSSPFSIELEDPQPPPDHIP

[5] = target: T1, Recombinant human Avi_PCSK9_Flag_His; assay: HTRF epitope competition: unlabelled compound titrated against a DyLight 650-labelled anti-PCSK9 antibody for biotinylated human PCSK9; % specific binding [panel B]; remark: listed apart in the source
Description: as §1, §2

[6] = target: T1, Recombinant human Avi_PCSK9_Flag_His; assay: binding ELISA on coated human PCSK9 (10 ug/mL), single concentration, detection with cryptate labelled Fc specific anti human IgG

Chain of human GLP-1 receptor (P43220 24-463): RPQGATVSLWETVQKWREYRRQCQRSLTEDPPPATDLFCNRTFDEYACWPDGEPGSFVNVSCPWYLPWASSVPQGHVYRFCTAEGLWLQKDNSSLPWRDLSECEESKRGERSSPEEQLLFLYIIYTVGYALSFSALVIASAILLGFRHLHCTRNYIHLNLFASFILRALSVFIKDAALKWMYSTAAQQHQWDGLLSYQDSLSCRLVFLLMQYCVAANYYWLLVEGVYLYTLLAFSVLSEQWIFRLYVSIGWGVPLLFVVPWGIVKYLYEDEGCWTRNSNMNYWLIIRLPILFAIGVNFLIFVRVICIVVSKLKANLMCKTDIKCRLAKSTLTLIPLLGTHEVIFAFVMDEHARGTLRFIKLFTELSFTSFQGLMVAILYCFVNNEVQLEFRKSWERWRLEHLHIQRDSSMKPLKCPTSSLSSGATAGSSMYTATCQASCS

B1: PC9#3 GLP-1 analogue heavy chain fusion (antibody, IgG1)
VH: HGEGTFTSDVSSYLEEQAAKEFIAWLVKGGGGGGGSGGGGSGGGGSAEVQLVESGGGLVQPGGSLRLSCAASGFTFNNYAMNWVRQAPGKGLDWVSTISGSGGTTNYADSVKGRFIISRDSSKHTLYLQMNSLRAEDTAVYYCAKDSNWGNFDLWGRGTLVTVSS
VL: not shown
notes: IgG1-TM; descriptive name; also called heavy chain peptide antibody fusion of PC9#3
- IC50 (read off the curve) [1]: ~90 pM

B2: PC9#2_GLP-1_VL (antibody, IgG1)
VH: QVQLVQSGAEVKKPGASVKVSCKASGYTFTSYYMHWVRQAPGQGLEWMGEIHPSGGRTNYNEKFKSRVTMTRDTSTSTVYMELSSLRSEDTAVYYCARERPLYASDLWGQGTTVTVSS
VL: HGEGTFTSDVSSYLEEQAAKEFIAWLVKGGGGGGGSGGGGSGGGGSADIQMTQSPSSLSASVGDRVTITCKASQDVHTAVAWYQQKPGKAPKLLIYHASYRYTGVPSRFSGSGSGTDFTFTISSLQPEDIATYYCQQRYSLWRTFGQGTKLEIK
notes: IgG1-TM; also called light chain peptide antibody fusion of PC9#2
- x change of Kd, PC9#2_GLP1 against PC9#2 [2]: 2.7 fold
- x change (against GLP1-Fc) (human GLP-1 receptor): 2.4 fold
- IC50 (read off the curve) [3]: ~400 pM

B3: HS9_DSB7_V19A (antibody)
VH: QVQLVQSGAEVKKPGASVKVSCKASGYTFTSYYMHWVRQAPGQGLEWMGEISPSGGSTSYNQKFQGRVTMTRDTSTSTVYMELSSLRSEDTAVYYCARERPLYASDLWGQGTTVTVSS
VL: HGEGTFTSDLSKQMEEECARLFIEWLKNGGPSSGAPPPGCGGGGGSGGGGSGGGGSADIQMTQSPSSLSASVGDRVTITCQASQDVKTAVAWYQQKPGKAPKLLIYSASYRYTGVPSRFSGSGSGTDFTFTISSLQPEDIATYYCQQRYSLWRTFGQGTKLEIK
- binding result [4]: no binding (tested: 25 µg/mL)

B4: PC9#2 GLP-1 analogue heavy chain fusion (antibody, IgG1)
VH: HGEGTFTSDVSSYLEEQAAKEFIAWLVKGGGGGGGSGGGGSGGGGSAQVQLVQSGAEVKKPGASVKVSCKASGYTFTSYYMHWVRQAPGQGLEWMGEIHPSGGRTNYNEKFKSRVTMTRDTSTSTVYMELSSLRSEDTAVYYCARERPLYASDLWGQGTTVTVSS
VL: DIQMTQSPSSLSASVGDRVTITCKASQDVHTAVAWYQQKPGKAPKLLIYHASYRYTGVPSRFSGSGSGTDFTFTISSLQPEDIATYYCQQRYSLWRTFGQGTKLEIK
notes: IgG1-TM; descriptive name; also called heavy chain peptide antibody fusion of PC9#2
- IC50 (read off the curve) [5]: ~700 pM

B5: PC9#6_DSB7_V19A (antibody, IgG1)
VH: QVQLVQSGAEVKKPGSSVKVSCKASGGTFNSHAISWVRQAPGQGLEWMGGINPILGIANYAQKFQGRVTITADESTSTAYMELSSLRSEDTAVYYCARHYEIQIGRYGMNVYYLMYRFASWGQGTLVTVSS
VL: HGEGTFTSDLSKQMEEECARLFIEWLKNGGPSSGAPPPGCGGGGGSGGGGSGGGGSADIQMTQSPSSLSASVGDRVTITCRASQGIRSALNWYQQKPGKAPKLLIYNGSTLQSGVPSRFSGSGSGTDFTLTISSLQPEDFAVYYCQQFDGDPTFGQGTKVEIK
notes: IgG1-TM
- binding result [6]: no binding (tested: 100 ug/mL)
